Data taken from US9555076B2, “Neuregulin based methods and compositions for treating cardiovascular diseases” (Zensun (Shanghai) Science & Technology, Co., Ltd., priority 2002, dated 2017).
Values joined by “and” are separate entries in the source; they are usually repeats but may differ in a detail not shown here. Equal values may be shown once. Marks after values point to notes of the source that are not given here.

Tested on: acute myocardial injury caused by viral (Coxsackie B3) infection in mice
Experiment: Survival of mice infected with Coxsackie B3 virus
Type: in vivo, BALB/C mice
Details: for relative survival rate: mice
Protocol: 0.2 ml of 100×TCID50 CVB3 provided by Zhong Shan Hospital affiliated to Fudan University was injected intra-abdominally and established myocarditis model. Within the following week, the mouse manifested pilo-erection, depilation, emaciation, dullness and death, about half of the tested animals died at the 8th day.
Intravenous injection of the testing drug into the tail vein was carried out the same day of intra-abdominal viral infection in mice, the injection was performed for consecutive 5 days, animal survival rate was monitored, after completion of the experiment, echocardiograph, myocardial pathologic examination, serum troponin determination were carried out.
The death status of model animals in various testing drug group was monitored.
• Normal mice control group, model group and testing drug group were set up; • Normal mice control group (n=10); • Model group (n=20): Prepared buffer solution was injected; • Testing drug group (n=20): […] courses with 20 animals assigned for each group; • Placebo control group (n=20): Intra-abdominal injection of non-CVB3 freeze-thaw cellular supernatant, 0.2 ml/animal. 10.2 Dosage Set Up, Preparation of Testing Drug, Route of Drug Administration, Times of Drug Administration, Concentration and Volume of the Testing Drug • rhNRG-1β was diluted with preparation buffer solution (10 mM PB, 0.2% human serum albumin, 5% mannitol to needed concentration; • Three drug administration groups were set up, intravenous injection for consecutive 3-day, 5-day and 7-day, drug volume for each dose was 0.2 ml/animal; • Drug administration of the model group was intravenous injection into the tail vein of mice, once every day (qd), for consecutive 7 days, drug volume for each dose was 0.2 ml/animal. 7.3 Method of the Experiment 7.3.1 Set Up of Acute Viral Myocariditis Animal Model in Mice

B1: rhNRG-1 β: Recombinant human neuregulin fragment of 61 amino acid (SEQ ID NO:4), 3 disulfide bonds, expressed in E. coli (protein, listed as Homo sapiens)
chain: SHLVKCAEKEKTFCVNGGECFMVKDLSNPSRYLCKCPNEFTGDRCQNYVMASFYKAEELYQ
modifications: disulfide (positions not given here)
For B1, the “Number of survival animals” value (mice n = 20, 30 μg/kg iv qd × 7, 7th day, (II)) was 18, the “Number of survival animal” value (mice n = 20, 30 μg/kg iv qd × 7, killed, (I)) was 17* and the “Number of survival animals” value (mice n = 20, 30 μg/kg iv qd × 7, killed, (II)) was 18*. It also gave a relative survival rate (5 μg/kg (so in the source) iv qd × 5, 1st day, (I)) of 100%, a relative survival rate (5 μg/kg (so in the source) iv qd × 5, 2nd day, (I)) of 100% and a relative survival rate (5 μg/kg (so in the source) iv qd × 5, 3rd day, (I)) of 100%. The relative survival rate (5 μg/kg (so in the source) iv qd × 5, 4th day, (I)) was 95%, the relative survival rate (5 μg/kg (so in the source) iv qd × 5, 5th day, (I)) was 90% and the relative survival rate (5 μg/kg (so in the source) iv qd × 5, 6th day, (I)) was 75%. The relative survival rate (5 μg/kg (so in the source) iv qd × 5, 7th day, (I)) was 65%, the relative survival rate (5 μg/kg (so in the source) iv qd × 5, killed, (I)) was 50% and the relative survival rate (7.5 μg/kg iv qd × 5, 1st day, (II)) was 100%. For the same molecule, the relative survival rate (7.5 μg/kg iv qd × 5, 2nd day, (II)) was 100%, the relative survival rate (7.5 μg/kg iv qd × 5, 3rd day, (II)) was 100% and the relative survival rate (7.5 μg/kg iv qd × 5, 4th day, (II)) was 90%. For the same molecule, the relative survival rate (7.5 μg/kg iv qd × 5, 5th day, (II)) was 85%, the relative survival rate (7.5 μg/kg iv qd × 5, 6th day, (II)) was 70% and the relative survival rate (7.5 μg/kg iv qd × 5, 7th day, (II)) was 55%. The relative survival rate (7.5 μg/kg iv qd × 5, killed, (II)) was 50%, the relative survival rate (15 μg/kg iv qd × 5, 1st day, (I)) was 100% and the relative survival rate (15 μg/kg iv qd × 5, 1st day, (II)) was 100%. The relative survival rate (15 μg/kg iv qd × 5, 2nd day, (I)) was 100%, the relative survival rate (15 μg/kg iv qd × 5, 2nd day, (II)) was 100% and the relative survival rate (15 μg/kg iv qd × 5, 3rd day, (I)) was 100%. For the same molecule, the relative survival rate (15 μg/kg iv qd × 5, 3rd day, (II)) was 100%, the relative survival rate (15 μg/kg iv qd × 5, 4th day, (I)) was 100% and the relative survival rate (15 μg/kg iv qd × 5, 4th day, (II)) was 95%. It also gave a relative survival rate (15 μg/kg iv qd × 5, 5th day, (I)) of 95%, a relative survival rate (15 μg/kg iv qd × 5, 5th day, (II)) of 90% and a relative survival rate (15 μg/kg iv qd × 5, 6th day, (I)) of 85%. The relative survival rate (15 μg/kg iv qd × 5, 6th day, (II)) was 80%, the relative survival rate (15 μg/kg iv qd × 5, 7th day, (I)) was 70% and the relative survival rate (15 μg/kg iv qd × 5, 7th day, (II)) was 65%. The relative survival rate (15 μg/kg iv qd × 5, killed, (I)) was 65%, the relative survival rate (15 μg/kg iv qd × 5, killed, (II)) was 65% and the relative survival rate (30 μg/kg iv qd × 3, 1st day, (I)) was 100%. It also gave a relative survival rate (30 μg/kg iv qd × 3, 1st day, (II)) of 100%, a relative survival rate (30 μg/kg iv qd × 3, 2nd day, (I)) of 100% and a relative survival rate (30 μg/kg iv qd × 3, 2nd day, (II)) of 100%. The relative survival rate (30 μg/kg iv qd × 3, 3rd day, (I)) was 100%, the relative survival rate (30 μg/kg iv qd × 3, 3rd day, (II)) was 100% and the relative survival rate (30 μg/kg iv qd × 3, 4th day, (I)) was 95%. It also gave a relative survival rate (30 μg/kg iv qd × 3, 4th day, (II)) of 100%, a relative survival rate (30 μg/kg iv qd × 3, 5th day, (I)) of 90% and a relative survival rate (30 μg/kg iv qd × 3, 5th day, (II)) of 95%. For the same molecule, the relative survival rate (30 μg/kg iv qd × 3, 6th day, (I)) was 80%, the relative survival rate (30 μg/kg iv qd × 3, 6th day, (II)) was 80% and the relative survival rate (30 μg/kg iv qd × 3, 7th day, (I)) was 70%. The relative survival rate (30 μg/kg iv qd × 3, 7th day, (II)) was 75%, the relative survival rate (30 μg/kg iv qd × 3, killed, (I)) was 65% and the relative survival rate (30 μg/kg iv qd × 3, killed, (II)) was 75%. For the same molecule, the relative survival rate (30 μg/kg iv qd × 5, 1st day, (I)) was 100%, the relative survival rate (30 μg/kg iv qd × 5, 1st day, (II)) was 100% and the relative survival rate (30 μg/kg iv qd × 5, 1st day, Example 5 (I)) was 100%. For the same molecule, the relative survival rate (30 μg/kg iv qd × 5, 1st day, Example 5 (II)) was 100%, the relative survival rate (30 μg/kg iv qd × 5, 2nd day, (I)) was 100% and the relative survival rate (30 μg/kg iv qd × 5, 2nd day, (II)) was 100%. For the same molecule, the relative survival rate (30 μg/kg iv qd × 5, 2nd day, Example 5 (I)) was 100%, the relative survival rate (30 μg/kg iv qd × 5, 2nd day, Example 5 (II)) was 100% and the relative survival rate (30 μg/kg iv qd × 5, 3rd day, (I)) was 100%. The relative survival rate (30 μg/kg iv qd × 5, 3rd day, (II)) was 100%, the relative survival rate (30 μg/kg iv qd × 5, 3rd day, Example 5 (I)) was 100% and the relative survival rate (30 μg/kg iv qd × 5, 3rd day, Example 5 (II)) was 100%. It also gave a relative survival rate (30 μg/kg iv qd × 5, 4th day, (I)) of 100%, a relative survival rate (30 μg/kg iv qd × 5, 4th day, (II)) of 100% and a relative survival rate (30 μg/kg iv qd × 5, 4th day, Example 5 (I)) of 100%. It also gave a relative survival rate (30 μg/kg iv qd × 5, 4th day, Example 5 (II)) of 100%, a relative survival rate (30 μg/kg iv qd × 5, 5th day, (I)) of 100% and a relative survival rate (30 μg/kg iv qd × 5, 5th day, (II)) of 95%. The relative survival rate (30 μg/kg iv qd × 5, 5th day, Example 5 (I)) was 95%, the relative survival rate (30 μg/kg iv qd × 5, 5th day, Example 5 (II)) was 95% and the relative survival rate (30 μg/kg iv qd × 5, 6th day, (I)) was 90%. The relative survival rate (30 μg/kg iv qd × 5, 6th day, (II)) was 90%, the relative survival rate (30 μg/kg iv qd × 5, 6th day, Example 5 (I)) was 95% and the relative survival rate (30 μg/kg iv qd × 5, 6th day, Example 5 (II)) was 95%. For the same molecule, the relative survival rate (30 μg/kg iv qd × 5, 7th day, (I)) was 85%, the relative survival rate (30 μg/kg iv qd × 5, 7th day, (II)) was 85% and the relative survival rate (30 μg/kg iv qd × 5, 7th day, Example 5 (I)) was 90%. For the same molecule, the relative survival rate (30 μg/kg iv qd × 5, 7th day, Example 5 (II)) was 90%, the relative survival rate (30 μg/kg iv qd × 5, killed, (I)) was 80% and the relative survival rate (30 μg/kg iv qd × 5, killed, (II)) was 85%. For the same molecule, the relative survival rate (30 μg/kg iv qd × 5, killed, Example 5 (I)) was 85%, the relative survival rate (30 μg/kg iv qd × 5, killed, Example 5 (II)) was 80% and 90% and the relative survival rate (30 μg/kg iv qd × 7, 1st day, (I)) was 100%. It also gave a relative survival rate (30 μg/kg iv qd × 7, 1st day, (II)) of 100%, a relative survival rate (30 μg/kg iv qd × 7, 2nd day, (I)) of 100% and a relative survival rate (30 μg/kg iv qd × 7, 2nd day, (II)) of 100%. For the same molecule, the relative survival rate (30 μg/kg iv qd × 7, 3rd day, (I)) was 100%, the relative survival rate (30 μg/kg iv qd × 7, 4th day, (I)) was 100% and the relative survival rate (30 μg/kg iv qd × 7, 5th day, (I)) was 100%. For the same molecule, the relative survival rate (30 μg/kg iv qd × 7, 6th day, (I)) was 90%, the relative survival rate (30 μg/kg iv qd × 7, 7th day, (I)) was 90% and the relative survival rate (30 μg/kg iv qd × 7, killed, (I)) was 85%. The relative survival rate (30 μg/kg iv qd × 7, killed, (II)) was 80%.
